Patent publication US20260098093A1 (HUMMINGBIRD BIOSCIENCE PTE, published 2026)

Columns and labels:
[1] = target: T1, recombinant human VISTA-Fc protein (R&D #7126-B7) (human, UniProt Q9H7M9 33-194); assay: competition ELISA: plate-bound human VISTA-Fc, competitor LRIG1.HIS at 1 µg/ml
T1 construct: Bought protein; also called Fc-tagged human VISTA; not shown: Fc part of a bought fusion protein
T1 sequence: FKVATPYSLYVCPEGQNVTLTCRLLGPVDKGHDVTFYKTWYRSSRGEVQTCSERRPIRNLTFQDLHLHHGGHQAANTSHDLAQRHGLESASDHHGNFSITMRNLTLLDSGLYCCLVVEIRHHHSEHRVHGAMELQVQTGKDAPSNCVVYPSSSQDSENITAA
Protocol: (§1) For inhibition assay, 384-well plates were coated with 5 μg/ml of human VISTA-Fc recombinant protein (R&D #7126-B7) diluted in PBS for 24 hrs at 4° C. […] Post incubation, plates were washed three times with TBST and incubated with anti-HIS HRP (Abcam #ab1187) antibody for 1 hr at room temperature followed by three further washes. Colorimetric reactions were developed using standard protocol as described for ELISA above.

[2] = target: T1, recombinant human VISTA-Fc protein (R&D …); assay: competition ELISA: plate-bound human VISTA-Fc, competitor biotinylated VSIG3-Fc at 24 nM
Protocol: as §1, with “For the” for “For”, “2” for “5”, “streptavidin” for “anti-HIS”, “(R&D #DY998)” for “(Abcam #ab1187)”

B7H1/PDL-1 = B7H1/PDL-1 (human, UniProt Q9NZQ7 19-239, limits assumed); assay: ELISA: plate coated with the named human antigen, 4M2-C12-mIgG2a titrated, absorbance 450 nm
B7H3 = target: T2, B7H3 (human, UniProt Q5ZPR3 29-461, limits assumed); assay: as above
T2 construct: also called CD276
T2 sequence (looked up): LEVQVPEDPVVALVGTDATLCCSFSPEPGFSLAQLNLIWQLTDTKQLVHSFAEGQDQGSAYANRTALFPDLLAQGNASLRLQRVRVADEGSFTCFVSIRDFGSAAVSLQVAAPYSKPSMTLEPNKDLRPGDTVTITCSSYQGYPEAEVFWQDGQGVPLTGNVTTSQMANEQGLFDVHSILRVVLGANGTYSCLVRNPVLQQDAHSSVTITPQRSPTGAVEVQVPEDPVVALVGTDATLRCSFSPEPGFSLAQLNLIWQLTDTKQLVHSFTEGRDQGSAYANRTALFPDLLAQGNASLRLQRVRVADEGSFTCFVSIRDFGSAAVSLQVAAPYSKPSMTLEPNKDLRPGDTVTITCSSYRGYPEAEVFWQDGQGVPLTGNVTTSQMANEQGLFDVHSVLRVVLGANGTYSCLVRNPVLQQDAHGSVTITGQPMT

B7H4 = target: T3, B7H4 (human, UniProt Q7Z7D3 29-258, limits assumed); assay: as above
T3 construct: also called VTCN1
T3 sequence (looked up): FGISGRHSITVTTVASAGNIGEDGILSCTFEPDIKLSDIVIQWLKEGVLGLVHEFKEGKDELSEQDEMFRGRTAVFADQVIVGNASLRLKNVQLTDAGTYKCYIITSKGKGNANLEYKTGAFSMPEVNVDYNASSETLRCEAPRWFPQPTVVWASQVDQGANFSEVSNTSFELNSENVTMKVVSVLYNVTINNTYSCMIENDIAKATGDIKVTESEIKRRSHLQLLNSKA

B7H6 = target: T4, B7H6 (human, UniProt Q68D85 25-262, limits assumed); assay: as above
T4 construct: also called NCR3LG1
T4 sequence (looked up): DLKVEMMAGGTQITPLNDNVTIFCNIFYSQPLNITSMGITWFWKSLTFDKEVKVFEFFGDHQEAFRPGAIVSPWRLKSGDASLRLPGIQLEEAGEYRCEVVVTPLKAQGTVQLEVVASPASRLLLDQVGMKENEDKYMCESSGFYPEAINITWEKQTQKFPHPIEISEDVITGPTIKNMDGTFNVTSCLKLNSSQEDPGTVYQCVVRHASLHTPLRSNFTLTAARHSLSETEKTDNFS

B7H7 = target: T5, B7H7 (human, UniProt Q9UM44 23-344, limits assumed); assay: as above
T5 construct: also called HHLA2
T5 sequence (looked up): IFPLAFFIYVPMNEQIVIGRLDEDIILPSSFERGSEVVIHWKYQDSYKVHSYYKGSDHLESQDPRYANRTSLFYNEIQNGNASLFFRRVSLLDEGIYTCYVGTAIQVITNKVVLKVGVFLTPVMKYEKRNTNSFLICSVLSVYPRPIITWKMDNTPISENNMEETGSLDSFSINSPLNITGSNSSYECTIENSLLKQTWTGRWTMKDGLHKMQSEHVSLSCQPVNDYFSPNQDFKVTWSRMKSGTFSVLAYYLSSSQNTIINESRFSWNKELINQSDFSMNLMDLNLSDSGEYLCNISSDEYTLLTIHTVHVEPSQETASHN

PD-1 = PD-1 (human, UniProt Q15116 25-167, limits assumed); assay: as above
CTLA-4 = target: T6, CTLA-4 (human, UniProt P16410 36-162, limits assumed); assay: as above
T6 sequence (looked up): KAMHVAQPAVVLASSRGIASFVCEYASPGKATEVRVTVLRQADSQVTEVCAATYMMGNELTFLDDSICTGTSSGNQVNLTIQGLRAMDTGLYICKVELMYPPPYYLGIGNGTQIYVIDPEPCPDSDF

HIS-tagged human VISTA [3] = target: T7, HIS-tagged human VISTA (human, UniProt Q9H7M9 33-194); assay: ELISA: plate coated with the named human antigen, 4M2-C12-mIgG2a titrated, absorbance 450 nm; tag of the coated VISTA not stated
T7 construct: Residues 33-194 are stated only for the protein used in HDXMS (Sino Biological #13482-H08H); also called human VISTA-HIS; not shown: HIS tag
T7 sequence: T1 sequence

HIS-tagged human VISTA [4] = target: T7, HIS-tagged human VISTA; assay: BLI (Octet) epitope binning: human VISTA-HIS on anti-Penta-HIS sensor, antibody at 400 nM (concentration from paragraph 696)
[5] = target: T1, recombinant human VISTA-Fc protein (R&D …); assay: ELISA, VSIG3-Fc on plate-bound human VISTA-Fc

B1: V4-C26 hIgG4 (antibody)
heavy: not shown
light: EIVLTQSPATLSLSPGERATLSCRASSSVGYIHWYQQKPGQAPRPIIYTTSNRATGIPARFSGSGSGTDNTLTISSLEPEDSAVYYCQQWSSYPPITFGGGTKLEVKRTVAAPSVFIFPPSDEQLKSGTASVVCLLNNFYPREAKVQWKVDNALQSGNSQESVTEQDSKDSTYSLSSTLTLSKADYEKHKVYACEVTHQGLSSPVTKSFNRGEC
notes: Human IgG4 (S228P) / kappa; APC-conjugated in the flow cytometry assays; also called HMBD-002; V4-C26 hIgG4(S228P)
B1 was tested, and the IC50 [1] was 3.4 nM and the IC50 [2] was 0.673 nM.

B2: 4M2-C12-mIgG2a (antibody, V domains shown)
VH: EVKLVESGPGLVKPSQSLSLTCTVTGYSITSDYAWNWIRQFPGNKLEWMGYITYSGNISYNPSLRSRISITRDTSKNQFFLQLNSVTPEDTATYSCARSLYYPWYFDVWGAGTTVTVSS
VL: DIVITQTPAILSTSPGEKVTMTCRASSSVGYIHWYQQKPGSSPKPWIYATSNLASGVPARFSGSGSGTSNSLTITRVEAEDAATYYCQQWSSYPPITFGGGTKLEVKR
notes: also called V4P mIgG2a
B2: no binding (tested: about 2e-8 M) (B7H1/PDL-1); no binding (tested: about 2e-8 M) (B7H3); no binding (tested: about 2e-8 M) (B7H4). B2: no binding (tested: about 2e-8 M) (B7H6); no binding (tested: about 2e-8 M) (B7H7); no binding (tested: about 2e-8 M) (PD-1). The binding result (CTLA-4) was “no binding (tested: about 2e-8 M)” and the “EC50 (read off the curve)” value (HIS-tagged human VISTA [3]) was about 0.2 nM.

B3: IGN175A (antibody, human IgG1, kappa, V domains shown)
VH: QVQLQQSGAELMKPGASVKISCKATGYTFSTHWIEWVKQRPGHGLEWIGEILPGSGSTSYNEKFKGKATFTADTSSNTAYMQLSSLTSEDSAVYYCARWLLYYYAMDYWGQGTSVTVSS
VL: DVLMTQTPLSLPVSLGDQASISCRSSQSIVHSNGNTYLEWYLQKPGQSPKLLIYKLSNRFSGVPDRFSGSGSGTDFTLKISRVEAEDLGVYYCFQGSHFPYTFGGGTKLEIKR
B3: binds (HIS-tagged human VISTA [4]).

B4: recombinant human VSIG3-Fc (Fc fusion, UniProt Q5DX21 23-241, looked up)
chain: LEVSESPGSIQVARGQPAVLPCTFTTSAALINLNVIWMVTPLSNANQPEQVILYQGGQMFDGAPRFHGRVGFTGTMPATNVSIFINNTQLSDTGTYQCLVNNLPDIGGRNIGVTGLTVLVPPSAPHCQIQGSQDIGSDVILLCSSEEGIPRPTYLWEKLDNTLKLPPTATQDQVQGTVTIRNISALSSGLYQCVASNAIGTSTCLLDLQVISPQPRNIG
modifications: biotinylated in the inhibition ELISA (sites not given)
notes: Bought protein; also called VSIG3-Fc (R&D #9229-VS); not shown: Fc part of a bought fusion protein
Work on B4 yielded an EC50 [5] of 24 nM.
